Measurements published in patent US10509035B2, “Antibodies, antibody drug conjugates and methods of use” (GAMAMABS PHARMA, priority 2015, dated 2019).
Where a chain is given by its changes, count along the chain named. Numbers in names are those of the source. Entries after “also recorded” stand apart in the source; their conditions may differ.

T1: AMHR-II receptor protein (AMHR-II-ECD-Fc) (Homo sapiens, UniProt Q16671)
T1 construct: Fc (C); purchased R&D System
T1 sequence (Q16671 18-149 limits assumed): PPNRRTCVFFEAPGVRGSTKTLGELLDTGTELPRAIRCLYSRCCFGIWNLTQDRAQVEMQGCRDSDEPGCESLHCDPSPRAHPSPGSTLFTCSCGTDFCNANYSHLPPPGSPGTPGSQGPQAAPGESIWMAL

T2: AMHR2 receptor expressed at the surface membrane of the COV434 AMHR2 transfected cell line (Homo sapiens, UniProt Q16671)
T2 construct: expressed in transfected cells; host or cells: COV434
T2 sequence (Q16671 18-573): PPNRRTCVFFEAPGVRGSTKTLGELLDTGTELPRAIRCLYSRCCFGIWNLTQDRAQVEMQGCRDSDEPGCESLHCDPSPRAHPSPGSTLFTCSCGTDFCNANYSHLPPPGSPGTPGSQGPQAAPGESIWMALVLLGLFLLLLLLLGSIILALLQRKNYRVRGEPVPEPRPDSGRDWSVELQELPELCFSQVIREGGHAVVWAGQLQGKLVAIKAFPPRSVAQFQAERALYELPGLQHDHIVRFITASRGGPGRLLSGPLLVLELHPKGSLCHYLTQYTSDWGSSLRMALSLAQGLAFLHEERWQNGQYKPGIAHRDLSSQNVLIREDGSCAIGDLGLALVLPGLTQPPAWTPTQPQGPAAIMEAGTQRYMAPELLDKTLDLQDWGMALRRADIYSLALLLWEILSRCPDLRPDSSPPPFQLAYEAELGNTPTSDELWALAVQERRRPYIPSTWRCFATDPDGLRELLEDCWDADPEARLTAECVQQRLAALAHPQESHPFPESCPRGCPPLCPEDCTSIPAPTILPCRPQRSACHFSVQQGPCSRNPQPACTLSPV

T3: extracellular domain of AMHR-II receptor (AMHR-II-ECD-Fc) (Homo sapiens, UniProt Q16671)
T3 construct: Fc (C); purchased R&D System
T3 sequence (Q16671 18-149 limits assumed): T1 sequence (Q16671 18-149 limits assumed)

T4: AMHR2 receptor expressed at the surface membrane of the COV434 WT cell line (Homo sapiens, UniProt Q16671)
T4 construct: assayed on the low expressing AMHR-II COV434 WT cell line; endogenous in cells; host or cells: COV434 WT
T4 sequence (Q16671 18-573): T2 sequence (Q16671 18-573)

B1: 3C23K (antibody, V domains shown)
VH: QVRLVQSGAEVKKPGASVKVSCKASGYTFTSYHIHWVRQAPGQRLEWMGWIYPGDDSTKYSQKFQGRVTITRDTSASTAYMELSSLRSEDTAVYYCTRGDRFAYWGQGTLVTVSS
VL: DIQMTQSPSTLSASVGDRVTITCRASSSVRYIAWYQQKPGKAPKLLTYPTSSLKSGVPSRFSGSGSGTEFTLTISSLQPDDFATYYCLQWSSYPWTFGGGTKVEIK
modifications: 3C23K/3C23; 3C23K
B2: K4D24: 3C23K variant; VH H-Q1R (SEQ ID NO: 22), VL SEQ ID NO: 36 (antibody, V domains shown)
VH: B1 VH with Q1R
VL: B1 VL
modifications: K4D-24/6C59; 3C23K
B3: 6C59: 3C23K variant; VH H-Q1R (SEQ ID NO: 22), VL L-S27P, L-S28P (SEQ ID NO: 40) (antibody, V domains shown)
VH: B1 VH with Q1R
VL: B1 VL with S27P, S28P
modifications: K4D-24/6C59; LS27P, L-S28P

Experiments:
[1] = system: COV434 AMHR-II transfected cell line; assay: Antibody internalization (flow cytometry and immunofluorescence imaging); assay type: cell-based; conditions: for internalization compared with 3C23K: K4D24 0.5 μg/ml, 6C59 0.3 μg/ml, 3C23K 10 μg/ml
Protocol: (§1) Antibody mediated internalization were assessed by flow cytometry analysis and by immunofluorescence imaging. Flow cytometry experiments was done on the two expressing AMHR-II cell lines: COV434 WT with low level of expression and COV434-AMHR-II transfected cell line with high level of expression. Briefly, 5×10^5 cells were incubated with 3C23K at 10 μg/ml and incubated 30 min at 4° C. After washes, DMEM/GlutaMax (Gibco) medium, cold or pre-warmed at 37° C., was added and incubated at 4° C. or 37° C. at different time points (15 min, 30 min and 60 min). Phycoerythrin-conjugated anti-human IgG antibody (1:200, Beckman-Coulter) was added for 30 min at 4° C. FACS analysis of the resuspended cells was done on a BD Accuri™ C6 flow cytometer (BD Bioscience). As depicted in FIGS. 9A and 9B, the internalization of the 3C23K observed at 37° C. is fast whatever the level of AMHR-II expression. For immunofluorescence imaging experiments, COV434 AMHR-II transfected cell line were grown on poly-D lysine coated glass coverslips overnight at 37° C. at a density of 75000 cells/cm^2. Cells were incubated with 3C23K directly labelled with Alexa Fluor 488 for 1H30 at 4° C. to carry out surface labelling. Cell surface bound antibodies were allowed to internalize by incubating cells in prewarmed medium at 37° C. At appropriate time points, coverslips were removed and cells were washed in PBS, then fixed in formaline (4%, 30 min at room temperature) and permeabilized (Triton X-100 0.5%, 5 min at room temperature). Nuclei were stained with DAPI (4′,6-diamidino-2-phenylindole) and coverslips were mounted on microscope slides and imaged with Leica DM5000 microscope (Leica Microsystems). Internalization was quantified by counting the number of visible vesicles in cell section at different incubation time using Image J software.
The internalization capacity of the K4D24 and 6C59 variants was assayed by fluorescence cytometry analysis in the same manner as in Example 8 except for the concentrations used. Due to their strong binding, K4D24 and 6C59 were used at 0.5 μg/ml and 0.3 μg/ml respectively whereas the 3C23K was used at 10 μg/ml.

[2] = system: COV434 AMHR-II transfected cell line; assay: Co-localization with the lysosomal marker LAMP-1 (immunofluorescence); assay type: cell-based
Protocol: as §1, with “Cell surface bound antibodies were allowed to internalize by incubating cells in prewarmed medium at 37° C. At appropriate time points, coverslips were removed and cells were washed in PBS, then fixed in formaline (4%, 30 min at room temperature) and permeabilized (Triton X-100 0.5%, 5 min at room temperature). Nuclei were stained with DAPI (4′,6-diamidino-2-phenylindole) and coverslips were mounted on microscope slides and imaged with Leica DM5000 microscope (Leica Microsystems).” left out, “software. […]” for “software.”

[3] = biological target: T1, AMHR-II receptor protein (AMHR-II-ECD-Fc); assay: Binding kinetic parameters by surface plasmon resonance (Bia3000) on immobilized AMHR-II-ECD-Fc; conditions: SPR, 25° C., Langmuir 1:1 fitting model
Protocol: Immobilization of AMHRII was performed on a Bia3000 apparatus at 25° C. in HBS-EP (HEPES 10 mM, NaCl 150 mM, EDTA 3 mM, P20 surfactant 0.005%) at […] flow rate on CM5 sensor chip using EDC/NHS (1-Ethyl-3-3-dimethylaminopropyl carbodiimidehydrochloride) activation according to the manufacturer's instructions (GEHealthcare). Briefly, carboxyl functions of CM5 sensor chip were activated with 0.4M EDC/0.1M NHS during 7 min. A solution of AMHR-II-ECD-Fc (R&D System) at 2.5 μg/ml in sodium acetate buffer was injected during 12 min. An injection of 1M ethanolamine hydrochloride was used to neutralize the activation. Recombinant AMHR-II was covalently immobilized at 1270 RU level. A control reference surface was prepared using the same chemical treatment of without injection of AMHRII.
Antibodies at different concentrations (from 0.5 nM to 133 nM) were injected during 180s on AMHRII-coated flowcell and the control flowcell. After a dissociation step of 400s in running buffer, sensor surfaces were regenerated using 5 μl of Glycine-HCl pH1.7. All the sensorgrams were corrected by subtracting the low signal from the control reference surface. Kinetic parameters were evaluated from the sensorgrams using a Langmuir 1:1 fitting model on the BiaEvaluation 4.2 software.

[4] = system: COV434 AMHR-II transfected cell line; assay: Apoptosis induction, Annexin V-FITC / propidium iodide flow cytometry; assay type: cell-based; conditions: 250 μg/ml, 48 hours
Protocol: The percentage of apoptotic was assessed using the Annexin V-Fluos Staining kit (Roche) according to the manufacturer's protocol. […] Carboplatin (300 μM) was used as positive control. After washes and centrifugation, the cell pellets were resuspended in the Annexin-V-Fluorescein and propidium iodide reagents. Following 10 minutes incubation at room temperature, samples were analyzed by flow cytometry on a BD Accuri™ C6 flow cytometer (BD Bioscience).

[5] = biological target: T5, FCGRIIIA receptor (CD16a) (Homo sapiens, UniProt P08637); assay: ELISA binding to the extracellular domain of CD16a; conditions: 200 ng per well CD16a, 0.3 to 5.0 μg/ml
T5 construct: purchased R&D System
T5 sequence (P08637 17-208 limits assumed): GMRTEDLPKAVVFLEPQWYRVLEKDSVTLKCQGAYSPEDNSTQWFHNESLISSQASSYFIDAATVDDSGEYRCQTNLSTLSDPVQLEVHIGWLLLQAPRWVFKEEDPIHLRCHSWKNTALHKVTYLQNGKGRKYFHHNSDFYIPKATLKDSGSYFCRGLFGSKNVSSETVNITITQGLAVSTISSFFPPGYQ
Protocol: The binding of anti-AMHR-II antibodies to the extracellular domain of CD16a was evaluated by ELISA. ELISA plates (96 wells, Maxisorp, NUnc) were coated overnight at +4° C. with 200 ng per wells of CD16a (R&D System) or an irrelevant protein (NS, non-specific binding). The experimental protocol was identical to that described for example 1. The unconjugated and ADC 3C23K antibodies were tested at concentrations from 0.3 to 5.0 μg/ml.

[6] = biological target: T2, AMHR2 receptor expressed at the surface membrane of the COV434 AMHR2 transfected cell line; assay: FACS binding to AMHR-II receptor at the surface of the COV434 AMHR-II transfected cell line; conditions: concentrations 0.5 to 75 μg/ml, Hill slope fit (Example 4)
Protocol: (§2) The COV434 AMHR-II transfected and the COV434 WT cell lines were maintained in DMEM/GlutaMax (Gibco) supplemented with 10% FBS, penicillin 100 U/ml and Streptomycin 100 μg/ml. Geneticin at 666 μg/ml was added for the COV434 AMHR-II transfected cell line. […] After washes, Phycoerythrin-conjugated anti-human IgG antibody (1:200, Beckman-Coulter) was added for 1 hour at room temperature. FACS analysis of the resuspended cells was done on a BD Accuri™ C6 flow cytometer (BD Bioscience).
(§3) The binding capacity of the anti-AMHR-II antibody variants K4D24 and 6C59 to the AMHR-II expressing cell lines was evaluated by flow cytometry analysis in the same manner as example 4. FACS analysis with COV434-AMHR-II transfected cell line is described in FIG. 16. The Kapparent of the K4D24 and 6C59 variants were improved by a factor of 20 and 40 fold respectively as compared to the 3C23K (0.098 μg/ml and 0.05 μg/ml versus 2.2 μg/ml). The binding capacity of these variants was also assayed on the low expressing AMHR-II COV434 WT cell line. In this setting the binding was evaluated with three concentrations of variants (25, 10 and 5 μg/ml) and three concentrations of 3C23K (50, 25 and 10 μg/ml).

COV434 WT cell line = assay: Antibody internalization (flow cytometry); assay type: cell-based; conditions: 10 μg/ml, low level of AMHR-II expression
Protocol: as §1, with “Cell surface bound antibodies were allowed to internalize by incubating cells in prewarmed medium at 37° C. At appropriate time points, coverslips were removed and cells were washed in PBS, then fixed in formaline (4%, 30 min at room temperature) and permeabilized (Triton X-100 0.5%, 5 min at room temperature). Nuclei were stained with DAPI (4′,6-diamidino-2-phenylindole) and coverslips were mounted on microscope slides and imaged with Leica DM5000 microscope (Leica Microsystems).” left out

[7] = biological target: T3, extracellular domain of AMHR-II receptor (AMHR-II-ECD-Fc); assay: ELISA binding to the extracellular domain of AMHR-II receptor
Protocol: The binding capacity of the anti-AMHR-II 3C23K antibodies was evaluated by ELISA. ELISA plates (96 wells, Maxisorp, NUnc) were coated overnight at +4° C. with 50 ng per well of AMHR-II-ECD-Fc (R&D System). Coated ELISA plates were blocked with PBS-BSA 4% for 2 hours at 37° C. and washed three times with PBS-Tween20 0.05%. […] The bound anti-AMHR-II antibodies were detected by adding HRP-conjugated F(ab′)2 goat anti-human F(ab′2) fragment specific (Interchim) diluted at 1:10000 and incubated for one hour at 37° C. Revelation was done with TMB (Sigma) and the reaction was stopped by adding H2SO4 1N (v:v). Absorbances were measured at 450 nm and binding data curves were analysis using GraphPad Prism.
The binding capacity of the anti-AMHR-II variants K4D24 and 6C59 antibodies was assayed by ELISA assay as the same manner as in example 3 with only minor changes. ELISA plates (96 wells, Maxisorp, NUnc) were coated overnight at +4° C. with 50 ng per well or 10 ng per well of AMHR-II-ECD-Fc (R&D System). K4D24, 6C59 and 3C23K were serially diluted from 4 μg/ml to 1 ng/ml. Absorbances were measured at 450 nm and binding data curves were analysis using four-parameter nonlinear regression fit from GraphPad Prism. FIGS. 15A-15B show the results.

[8] = biological target: T4, AMHR2 receptor expressed at the surface membrane of the COV434 WT cell line; assay: FACS binding to the low expressing COV434 WT cell line; conditions: variants 25, 10, 5 μg/ml; 3C23K 50, 25, 10 μg/ml
Protocol: as §2, §3

[9] = coating 10 ng/well AMHR-II recombinant protein
[10] = coating 50 ng/well AMHR-II recombinant protein

Row | Molecule | internalization observed at 37° C. ([1]; flow cytometry, 10 μg/ml, high level of AMHR-II expression) | time of maximum of intracellular location ([1]; immunofluorescence imaging, 3C23K Alexa Fluor 488, 37° C.) | detection in the lysosomal compartment (colocalization with LAMP-1) [2] | KA [3] | Kd [3] | ka [3] | kd [3] | apoptosis induction [4] | binding to CD16a [5] | KDapparent [6] | internalization observed at 37° C. (COV434 WT cell line) | internalization compared with 3C23K ([1]; flow cytometry) | binding compared with 3C23K [7, 9] | binding compared with 3C23K [7, 10] | binding compared to 3C23K on the COV434 WT cell line [8]
1 | B1 | fast | 60 min | rapidly detected in the lysosomal compartment | 1.81e+10 M⁻¹ | 0.05 nM | 125000 M⁻¹ s⁻¹ | 6.93e-06 s⁻¹ | did not induce any apoptosis | very high affinity | ~3.1 µg/mL | fast | – | – | – | –
2 | B2 | – | – | – | – | – | – | – | – | – | – | – | retain the same internalization potential | Improved binding; also recorded: stronger | no major difference of binding | strongly improve the level of detection; also recorded: stronger binding
3 | B3 | – | – | – | – | – | – | – | – | – | – | – | retain the same internalization potential | Improved binding; also recorded: stronger | no major difference of binding | strongly improve the level of detection; also recorded: stronger binding
